{"source": "patent US20110300138A1", "about": "(published 2011)", "experiment_in_all_cases": "cell-based or functional assay", "key": {"[1]": {"biological_target": "TSHR with Arg255 mutated to Ala (human) (UniProt P16473)"}, "[2]": {"biological_target": "TSHR with Arg255 mutated to Asp expressed in CHO cells (human) (UniProt P16473)"}, "[3]": {"biological_target": "TSHR with Arg274 mutated to Ala, expressed in CHO cells (human) (UniProt P16473)"}, "[4]": {"biological_target": "TSHR with Ile60 mutated to Ala, expressed in CHO cells (human) (UniProt P16473)"}}}
{"substance": "TSH (ligand)", "values": [{"measurement": "Mutated/Wild type (%) of cyclic AMP produced, TSH 0.01 ng/mL", "setting": "[1]", "result": 161, "unit": "%"}, {"measurement": "Mutated/Wild type (%) of cyclic AMP produced, TSH 0.03 ng/mL", "setting": "[1]", "result": 141, "unit": "%"}, {"measurement": "Mutated/Wild type (%) of cyclic AMP produced, TSH 0.1 ng/mL", "setting": "[1]", "result": 126, "unit": "%"}, {"measurement": "Mutated/Wild type (%) of cyclic AMP produced, TSH 0.3 ng/mL", "setting": "[1]", "result": 101, "unit": "%"}, {"measurement": "Mutated/Wild type (%) of cyclic AMP produced, TSH 1 ng/mL", "setting": "[1]", "result": 90, "unit": "%"}, {"measurement": "Mutated/wild type (%) of cyclic AMP produced; TSH 3 ng/mL", "setting": "[1]", "result": 91, "unit": "%"}, {"measurement": "Cyclic AMP produced (pmol/mL), TSH 0.01 ng/mL, Experiment 1", "setting": "[2]", "result": 2.59, "unit": "pmol/mL"}, {"measurement": "Cyclic AMP produced (pmol/mL), TSH 0.01 ng/mL, Experiment 2", "setting": "[2]", "result": 1.49, "unit": "pmol/mL"}, {"measurement": "Cyclic AMP produced (pmol/mL), TSH 0.01 ng/mL, Experiment 3", "setting": "[2]", "result": 6.46, "unit": "pmol/mL"}, {"measurement": "Cyclic AMP produced (pmol/mL), TSH 0.03 ng/mL, Experiment 1", "setting": "[2]", "result": 6.47, "unit": "pmol/mL"}, {"measurement": "Cyclic AMP produced (pmol/mL), TSH 0.03 ng/mL, Experiment 2", "setting": "[2]", "result": 2.81, "unit": "pmol/mL"}, {"measurement": "Cyclic AMP produced (pmol/mL), TSH 0.03 ng/mL, Experiment 3", "setting": "[2]", "result": 9.44, "unit": "pmol/mL"}, {"measurement": "Cyclic AMP produced (pmol/mL), TSH 0.1 ng/mL, Experiment 1", "setting": "[2]", "result": 19.2, "unit": "pmol/mL"}, {"measurement": "Cyclic AMP produced (pmol/mL), TSH 0.1 ng/mL, Experiment 2", "setting": "[2]", "result": 6.92, "unit": "pmol/mL"}, {"measurement": "Cyclic AMP produced (pmol/mL), TSH 0.1 ng/mL, Experiment 3", "setting": "[2]", "result": 22.7, "unit": "pmol/mL"}, {"measurement": "Cyclic AMP produced (pmol/mL), TSH 0.3 ng/mL, Experiment 1", "setting": "[2]", "result": 51.7, "unit": "pmol/mL"}, {"measurement": "Cyclic AMP produced (pmol/mL), TSH 0.3 ng/mL, Experiment 2 (duplicate determination)", "setting": "[2]", "result": 21.2, "unit": "pmol/mL"}, {"measurement": "Cyclic AMP produced (pmol/mL), TSH 0.3 ng/mL, Experiment 3", "setting": "[2]", "result": 68.9, "unit": "pmol/mL"}, {"measurement": "Cyclic AMP produced (pmol/mL), TSH 1 ng/mL, Experiment 1", "setting": "[2]", "result": 68.6, "unit": "pmol/mL"}, {"measurement": "Cyclic AMP produced (pmol/mL), TSH 1 ng/mL, Experiment 2", "setting": "[2]", "result": 41.1, "unit": "pmol/mL"}, {"measurement": "Cyclic AMP produced (pmol/mL), TSH 1 ng/mL, Experiment 3", "setting": "[2]", "result": 154, "unit": "pmol/mL"}, {"measurement": "Cyclic AMP produced (pmol/mL), TSH 3 ng/mL, Experiment 1", "setting": "[2]", "result": 57.7, "unit": "pmol/mL"}, {"measurement": "Cyclic AMP produced (pmol/mL), TSH 3 ng/mL, Experiment 2", "setting": "[2]", "result": 52.4, "unit": "pmol/mL"}, {"measurement": "Cyclic AMP produced (pmol/mL), TSH 3 ng/mL, Experiment 3", "setting": "[2]", "result": 201, "unit": "pmol/mL"}, {"measurement": "Mutated/Wild type (%) of cyclic AMP produced, TSH 0.01 ng/mL, Experiment 1", "setting": "[2]", "result": 59, "unit": "%"}, {"measurement": "Mutated/Wild type (%) of cyclic AMP produced, TSH 0.01 ng/mL, Experiment 2", "setting": "[2]", "result": 67, "unit": "%"}, {"measurement": "Mutated/Wild type (%) of cyclic AMP produced, TSH 0.01 ng/mL, Experiment 3", "setting": "[2]", "result": 124, "unit": "%"}, {"measurement": "Mutated/Wild type (%) of cyclic AMP produced, TSH 0.03 ng/mL, Experiment 1", "setting": "[2]", "result": 70, "unit": "%"}, {"measurement": "Mutated/Wild type (%) of cyclic AMP produced, TSH 0.03 ng/mL, Experiment 2", "setting": "[2]", "result": 78, "unit": "%"}, {"measurement": "Mutated/Wild type (%) of cyclic AMP produced, TSH 0.03 ng/mL, Experiment 3", "setting": "[2]", "result": 96, "unit": "%"}, {"measurement": "Mutated/Wild type (%) of cyclic AMP produced, TSH 0.1 ng/mL, Experiment 1", "setting": "[2]", "result": 71, "unit": "%"}, {"measurement": "Mutated/Wild type (%) of cyclic AMP produced, TSH 0.1 ng/mL, Experiment 2", "setting": "[2]", "result": 88, "unit": "%"}, {"measurement": "Mutated/Wild type (%) of cyclic AMP produced, TSH 0.1 ng/mL, Experiment 3", "setting": "[2]", "result": 91, "unit": "%"}, {"measurement": "Mutated/Wild type (%) of cyclic AMP produced, TSH 0.3 ng/mL, Experiment 1", "setting": "[2]", "result": 123, "unit": "%"}, {"measurement": "Mutated/Wild type (%) of cyclic AMP produced, TSH 0.3 ng/mL, Experiment 2", "setting": "[2]", "result": 78, "unit": "%"}, {"measurement": "Mutated/Wild type (%) of cyclic AMP produced, TSH 0.3 ng/mL, Experiment 3", "setting": "[2]", "result": 75, "unit": "%"}, {"measurement": "Mutated/Wild type (%) of cyclic AMP produced, TSH 1 ng/mL, Experiment 1", "setting": "[2]", "result": 114, "unit": "%"}, {"measurement": "Mutated/Wild type (%) of cyclic AMP produced, TSH 1 ng/mL, Experiment 2", "setting": "[2]", "result": 76, "unit": "%"}, {"measurement": "Mutated/Wild type (%) of cyclic AMP produced, TSH 1 ng/mL, Experiment 3", "setting": "[2]", "result": 80, "unit": "%"}, {"measurement": "Mutated/wild type (%) of cyclic AMP produced; TSH 3 ng/mL; Experiment 1", "setting": "[2]", "result": 94, "unit": "%"}, {"measurement": "Mutated/wild type (%) of cyclic AMP produced; TSH 3 ng/mL; Experiment 2", "setting": "[2]", "result": 90, "unit": "%"}, {"measurement": "Cyclic AMP produced (pmol/mL), TSH 0.01 ng/mL, Experiment 1", "setting": "[3]", "result": 1.97, "unit": "pmol/mL"}, {"measurement": "Cyclic AMP produced (pmol/mL), TSH 0.01 ng/mL, Experiment 2", "setting": "[3]", "result": 1.37, "unit": "pmol/mL"}, {"measurement": "Cyclic AMP produced (pmol/mL), TSH 0.03 ng/mL, Experiment 1", "setting": "[3]", "result": 4.14, "unit": "pmol/mL"}, {"measurement": "Cyclic AMP produced (pmol/mL), TSH 0.03 ng/mL, Experiment 2", "setting": "[3]", "result": 2.94, "unit": "pmol/mL"}, {"measurement": "Cyclic AMP produced (pmol/mL), TSH 0.1 ng/mL, Experiment 1", "setting": "[3]", "result": 9.38, "unit": "pmol/mL"}, {"measurement": "Cyclic AMP produced (pmol/mL), TSH 0.1 ng/mL, Experiment 2", "setting": "[3]", "result": 8.29, "unit": "pmol/mL"}, {"measurement": "Cyclic AMP produced (pmol/mL), TSH 0.3 ng/mL, Experiment 1", "setting": "[3]", "result": 27.3, "unit": "pmol/mL"}, {"measurement": "Cyclic AMP produced (pmol/mL), TSH 0.3 ng/mL, Experiment 2", "setting": "[3]", "result": 25.5, "unit": "pmol/mL"}, {"measurement": "Cyclic AMP produced (pmol/mL), TSH 1 ng/mL, Experiment 1", "setting": "[3]", "result": 67.6, "unit": "pmol/mL"}, {"measurement": "Cyclic AMP produced (pmol/mL), TSH 1 ng/mL, Experiment 2", "setting": "[3]", "result": 58.5, "unit": "pmol/mL"}, {"measurement": "Cyclic AMP produced (pmol/mL), TSH 3 ng/mL, Experiment 1", "setting": "[3]", "result": 98.8, "unit": "pmol/mL"}, {"measurement": "Cyclic AMP produced (pmol/mL), TSH 3 ng/mL, Experiment 2", "setting": "[3]", "result": 73.2, "unit": "pmol/mL"}, {"measurement": "Mutated/Wild type (%), TSH 0.01 ng/mL, Experiment 1", "setting": "[3]", "result": 106, "unit": "%"}, {"measurement": "Mutated/Wild type (%), TSH 0.01 ng/mL, Experiment 2", "setting": "[3]", "result": 55, "unit": "%"}, {"measurement": "Mutated/Wild type (%), TSH 0.03 ng/mL, Experiment 1", "setting": "[3]", "result": 125, "unit": "%"}, {"measurement": "Mutated/Wild type (%), TSH 0.03 ng/mL, Experiment 2", "setting": "[3]", "result": 57, "unit": "%"}, {"measurement": "Mutated/Wild type (%), TSH 0.1 ng/mL, Experiment 1", "setting": "[3]", "result": 64, "unit": "%"}, {"measurement": "Mutated/Wild type (%), TSH 0.1 ng/mL, Experiment 2", "setting": "[3]", "result": 61, "unit": "%"}, {"measurement": "Mutated/Wild type (%), TSH 0.3 ng/mL, Experiment 1", "setting": "[3]", "result": 56, "unit": "%"}, {"measurement": "Mutated/Wild type (%), TSH 0.3 ng/mL, Experiment 2", "setting": "[3]", "result": 64, "unit": "%"}, {"measurement": "Mutated/Wild type (%), TSH 1 ng/mL, Experiment 1", "setting": "[3]", "result": 74, "unit": "%"}, {"measurement": "Mutated/Wild type (%), TSH 1 ng/mL, Experiment 2", "setting": "[3]", "result": 79, "unit": "%"}, {"measurement": "Mutated/Wild type (%), TSH 3 ng/mL, Experiment 1", "setting": "[3]", "result": 83, "unit": "%"}, {"measurement": "Mutated/Wild type (%), TSH 3 ng/mL, Experiment 2", "setting": "[3]", "result": 82, "unit": "%"}, {"measurement": "% inhibition of TSH stimulation; TSH (2), run at the end of assay; Experiment 1", "setting": "[4]", "result": 12, "unit": "%"}, {"measurement": "% inhibition of TSH stimulation; TSH (2), run at the end of assay; Experiment 2", "setting": "[4]", "result": 13, "unit": "%"}, {"measurement": "Mutated/Wild type (%) of cyclic AMP produced, TSH 0.01 ng/mL", "setting": "[4]", "result": 358, "unit": "%"}, {"measurement": "Mutated/Wild type (%) of cyclic AMP produced, TSH 0.03 ng/mL", "setting": "[4]", "result": 178, "unit": "%"}, {"measurement": "Mutated/Wild type (%) of cyclic AMP produced, TSH 0.1 ng/mL", "setting": "[4]", "result": 201, "unit": "%"}, {"measurement": "Mutated/Wild type (%) of cyclic AMP produced, TSH 0.3 ng/mL", "setting": "[4]", "result": 96, "unit": "%"}, {"measurement": "Mutated/Wild type (%) of cyclic AMP produced, TSH 1 ng/mL", "setting": "[4]", "result": 77, "unit": "%"}, {"measurement": "Mutated/wild type (%) of cyclic AMP produced; TSH 3 ng/mL", "setting": "[4]", "result": 83, "unit": "%"}]}
